Results from PMC2171490 (The Journal of Cell Biology, 2005).
Blank lines part the entries; values can stand above or below the binder they belong to.

Molecular target: EYFP-HP1β (UniProt P83916 1-185)
Assay: FRET or BRET

Sequence of EYFP-HP1β (P83916 whole entry): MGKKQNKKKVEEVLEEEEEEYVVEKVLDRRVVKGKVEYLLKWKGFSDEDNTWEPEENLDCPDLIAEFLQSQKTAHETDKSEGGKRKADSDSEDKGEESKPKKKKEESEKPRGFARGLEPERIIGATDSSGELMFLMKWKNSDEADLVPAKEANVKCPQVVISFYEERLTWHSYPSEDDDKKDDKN

mean donor fluorescence lifetime τ Mod: 2.9 ns
mean donor fluorescence lifetime τφ: 2.2 ns
B1: ECFP-SUV39H1 (enzyme, human, UniProt O43463-1 1-412, looked up)
chain: MAENLKGCSVCCKSSWNQLQDLCRLAKLSCPALGISKRNLYDFEVEYLCDYKKIREQEYYLVKWRGYPDSESTWEPRQNLKCVRILKQFHKDLERELLRRHHRSKTPRHLDPSLANYLVQKAKQRRALRRWEQELNAKRSHLGRITVENEVDLDGPPRAFVYINEYRVGEGITLNQVAVGCECQDCLWAPTGGCCPGASLHKFAYNDQGQVRLRAGLPIYECNSRCRCGYDCPNRVVQKGIRYDLCIFRTDDGRGWGVRTLEKIRKNSFVMEYVGEIITSEEAERRGQIYDRQGATYLFDLDYVEDVYTVDAAYYGNISHFVNHSCDPNLQVYNVFIDNLDERLPRIAFFATRTIRAGEELTFDYNMQVDPVDMESTRMDSNFGLAGLPGSPKKRVRIECKCGTESCRKYLF

mean donor fluorescence lifetime τ Mod: 2.7 ns
mean donor fluorescence lifetime τφ: 2.1 ns
B2: ECFP–SUV39H1-ΔSET (domain or fragment, human, UniProt O43463-1 3-249, looked up)
chain: ENLKGCSVCCKSSWNQLQDLCRLAKLSCPALGISKRNLYDFEVEYLCDYKKIREQEYYLVKWRGYPDSESTWEPRQNLKCVRILKQFHKDLERELLRRHHRSKTPRHLDPSLANYLVQKAKQRRALRRWEQELNAKRSHLGRITVENEVDLDGPPRAFVYINEYRVGEGITLNQVAVGCECQDCLWAPTGGCCPGASLHKFAYNDQGQVRLRAGLPIYECNSRCRCGYDCPNRVVQKGIRYDLCIFR

mean donor fluorescence lifetime τ Mod: 2.8 ns
mean donor fluorescence lifetime τφ: 2.2 ns
B3: ECFP–SUV39H1-Nchromo (domain or fragment, human, UniProt O43463-1 3-118, looked up)
chain: ENLKGCSVCCKSSWNQLQDLCRLAKLSCPALGISKRNLYDFEVEYLCDYKKIREQEYYLVKWRGYPDSESTWEPRQNLKCVRILKQFHKDLERELLRRHHRSKTPRHLDPSLANYL
